The values that follow come from patent publication US20220151977A1, “Generation Of Water-Soluble Cannabinoids Utilizing Protein Cannabinoid-Carriers” (Trait Biosciences, Inc., priority 2019, published 2022).

Test [1] can be described thus: Ligand binding assay by ANS displacement, THC. Conditions: 2 μM protein, 20 μM ANS, 33 μM ligand, 20° C.; for binding to THC by ANS displacement (relative change in fluorescence): FIG. 8; for Purification Status (binding to THC): Table 3.
Test [2] is described as follows: Ligand binding assay by ANS displacement, CBD. The note with it: 2 μM protein, 20 μM ANS, 33 μM ligand, 20° C.; for binding to CBD by ANS displacement (relative change in fluorescence): FIG. 8; for Purification Status (binding to CBD): Table 3.

B1: 10 (protein)
chain: MHVSTRQPCGAAPTAWPAQRPRSSPRRLACSAVLRDDARGVLQQAGLKLAAAAAAVLLAAPLHAGAASMPANAPLPALPPAPFDIEQSKQSKLLFDPMAYSGRWYEVASLKRGFAGEGQQDCHCTQGIYTPKEGGPEGAIKLEVDTFCVHGGPGGRLSGIQGSVSCADPLLLSYLPEFQTEMEMVEGFVAKCALRFDSLAFLPPEPYVVLRTDYTSYALVRGAKDRSFVQIYSRTPNPGAKFIAEQKAVLGQLGYPANDIVDTPQDCPEMAPQAMMAAMNRGMSSTPTMPASTPPALAMAGYDLGPAAVVLGEEAPAPVKGIAFDRLRNPLESLKNVFSLFN
modifications: Micractinium conductrix
Regarding B1, the “binding to THC by ANS displacement (relative change in fluorescence)” value in test [1] is “bind to both THC and CBD”. In addition, the “binding to CBD by ANS displacement (relative change in fluorescence)” value in test [2] was “bind to both THC and CBD”.

B2: SEQ ID NO. 10: PSC68250.1 lipocalin-like domain, Micractinium conductrix (green algae) (protein)
chain: MHVSTRQPCGAAPTAWPAQRPRSSPRRLACSAVLRDDARGVLQQAGLKLAAAAAAVLLAAPLHAGAASMPANAPLPALPPAPFDIEQSKQSKLLFDPMAYSGRWYEVASLKRGFAGEGQQDCHCTQGIYTPKEGGPEGAIKLEVDTFCVHGGPGGRLSGIQGSVSCADPLLLSYLPEFQTEMEMVEGFVAKCALRFDSLAFLPPEPYVVLRTDYTSYALVRGAKDRSFVQIYSRTPNPGAKFIAEQKAVLGQLGYPANDIVDTPQDCPEMAPQAMMAAMNRGMSSTPTMPASTPPALAMAGYDLGPAAVVLGEEAPAPVKGIAFDRLRNPLESLKNVFSLFN
modifications: Micractinium conductrix
For B2, the “Purification Status (binding to THC)” value in test [1] is given as “Binds to CBD”. For the same molecule, the “Purification Status (binding to CBD)” value in test [2] is reported as “Binds to CBD”.

B3: 33 (protein, listed as Macleaya cordata)
chain: MIRYSGRWFEVASLKRGFAGSGQEDCHCTQGVYTFDSEAPAIQVDTFCVHGGPDGYITGIRGKVQCLSEEDLEKNETDLEKRVMIREKCYLRFPTLPFIPKEPYDVIATDYDNFALVSGAKDTSFIQIYSRTPNPGPEFIEKYKSYLGNYGYDPSMIKDTPQ
Take B3: the “binding to THC by ANS displacement (relative change in fluorescence)” value in test [1] was “bind to both THC and CBD”. Besides, the “binding to CBD by ANS displacement (relative change in fluorescence)” value in test [2] was “bind to both THC and CBD”.

B4: SEQ ID NO. 33: OVA10565.1 Lipocalin/cytosolic fatty-acid binding domain (partial), Macleaya cordata (protein, listed as Macleaya cordata)
chain: MIRYSGRWFEVASLKRGFAGSGQEDCHCTQGVYTFDSEAPAIQVDTFCVHGGPDGYITGIRGKVQCLSEEDLEKNETDLEKRVMIREKCYLRFPTLPFIPKEPYDVIATDYDNFALVSGAKDTSFIQIYSRTPNPGPEFIEKYKSYLGNYGYDPSMIKDTPQ
As to B4, the “Purification Status (binding to THC)” value in test [1] was “Binds to CBD”. Also, the “Purification Status (binding to CBD)” value in test [2] was “Binds to CBD”.

B5: 1 (protein)
chain: MTSTEKKDMKAVKGLDLERYMGRWYEIASFPSRFQPKDGVDTRATYTLNPDGTVHVLNETWNGGKRGFIQGSAYKADPKSDEAKLKVKFFVPPFLPVIPVTGDYWVLYIDPEYQHAVIGQPSRSYLWILSRTAHMEEETYKQLVEKAVEEGYDVSKLHKTPQSDTPPESNTAPDDTKGVWWLKSIFGK
modifications: Cluster63 Unique
In the case of B5, the “binding to THC by ANS displacement (relative change in fluorescence)” value in test [1] is “bind to both THC and CBD”. Also, the “binding to CBD by ANS displacement (relative change in fluorescence)” value in test [2] is “bind to both THC and CBD”.

B6: SEQ ID NO. 1: Cluster63 Unique, artificial consensus sequence based on a family of homologous plant lipocalin sequences (protein)
chain: MTSTEKKDMKAVKGLDLERYMGRWYEIASFPSRFQPKDGVDTRATYTLNPDGTVHVLNETWNGGKRGFIQGSAYKADPKSDEAKLKVKFFVPPFLPVIPVTGDYWVLYIDPEYQHAVIGQPSRSYLWILSRTAHMEEETYKQLVEKAVEEGYDVSKLHKTPQSDTPPESNTAPDDTKGVWWLKSIFGK
modifications: Cluster63 Unique
Turning to B6, the “Purification Status (binding to THC)” value in test [1] is “Binds to CBD”. Also, in test [2], the “Purification Status (binding to CBD)” value was “Binds to CBD”.

B7: SEQ ID NO. 148: Odorant-binding protein, partial, Heterocephalus glaber (naked mole-rat) (protein)
chain: MINGDWCSIYIAADNVEKIEERGELRAYFCHIECQDECRNLSGGDRIMRNKHCCVGLSFRLDGVCQEFTVVGVKDEKSGVYITDYVGKNYFTVVESTEYITLFSNIIVDEKGTKMNVVLVAAKRDSLTEKEKQKFAQLAEEKGIPTENIRNVIAT
modifications: Heterocephalus glaber
Consider B7, for which the “Purification Status (binding to THC)” value in test [1] is reported as “Binds to THC”. Also, the “Purification Status (binding to CBD)” value in test [2] was “Binds to THC”.

B8: SEQ ID NO. 121: odorant-binding protein 1a-like, Mus caroli (Ryukyu mouse) (protein, listed as Mus caroli)
chain: MVKFLLLELAFGLAHAQMYGPWKTIAIAADNVDKMEISGELRLYFHQITCEKECKKMNVTFYVDENGQCSLTTITGYLQDDGKTYRSQFQGDNHYATVRTTPENIVFYSENVDRAGRKTKLVYVVGKNGSGSLK
On to B8, for which, in test [1] (listed as OBP2), the “binding to THC by ANS displacement (relative change in fluorescence)” value is on record as “highest binding affinity”. Besides, the “Purification Status (binding to THC)” value in test [1] is “Binds to THC”. Also, the “binding to CBD by ANS displacement (relative change in fluorescence)” value in test [2] (listed as OBP2) is “highest binding affinity”. The “Purification Status (binding to CBD)” value in test [2] is “Binds to THC”.

B9: 30 (protein)
chain: MAYSGRWYEVASLKRGFAGEGQQDCHCTQGIYTPKEGGPEGAIKLEVDTFCVHGGPGGRLSGIQGSVSCADPLLLSYLPEFQTEMEMVEGFVAKCALRFDSLAFLPPEPYVVLRTDYTSYALVRGAKDRSFVQIYSRTPNPGAKFIAEQKAVLGQLGYPANDIVDTPQDCPEMAPQ
modifications: Micractinium conductrix
B9: the “binding to THC by ANS displacement (relative change in fluorescence)” value in test [1] is “bind to both THC and CBD”. For the same molecule, the “binding to CBD by ANS displacement (relative change in fluorescence)” value in test [2] was “bind to both THC and CBD”.

B10: SEQ ID NO. 30: PSC68250.1 lipocalin-like domain (partial), Micractinium conductrix (protein)
chain: MAYSGRWYEVASLKRGFAGEGQQDCHCTQGIYTPKEGGPEGAIKLEVDTFCVHGGPGGRLSGIQGSVSCADPLLLSYLPEFQTEMEMVEGFVAKCALRFDSLAFLPPEPYVVLRTDYTSYALVRGAKDRSFVQIYSRTPNPGAKFIAEQKAVLGQLGYPANDIVDTPQDCPEMAPQ
modifications: Micractinium conductrix
notes: PSC68250.1 lipocalin-like domain (partial), Micractinium conductrix
For the molecule B10, in test [1], the “binding to THC by ANS displacement (relative change in fluorescence)” value is recorded as “binds to THC better than full length” and the “Purification Status (binding to THC)” value is listed as “Binds to CBD”. The “Purification Status (binding to CBD)” value in test [2] is on record as “Binds to CBD”.
